Reference: patent US20170190775A1
One block for each substance: values may come before it.

Experiments:
[1] = biological target: human TREM-1 on cells (human) (UniProt Q9NP99); test: cell-based or functional assay
[2] = biological target: human TREM-1 (hTREM-1) protein (human) (UniProt Q9NP99); test: SPR, mAb captured by anti-Fc, hTREM-1 as analyte (Example 11)
[3] = biological target: cynomolgus TREM-1 (cTREM-1) protein (cynomolgus monkey); test: SPR, mAb captured by anti-Fc, cTREM-1 as analyte (Example 11)
[4] = biological target: T1, full length cynomolgus monkey (c)TREM-1 on cells (cynomolgus monkey); test: cell-based or functional assay
T1 sequence: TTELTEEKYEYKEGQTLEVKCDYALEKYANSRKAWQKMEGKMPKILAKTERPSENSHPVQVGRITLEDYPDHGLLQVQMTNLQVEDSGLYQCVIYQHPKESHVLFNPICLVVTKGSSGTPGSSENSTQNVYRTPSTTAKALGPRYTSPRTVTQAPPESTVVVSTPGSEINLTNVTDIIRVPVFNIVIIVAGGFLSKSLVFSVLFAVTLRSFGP

human TREM-1 (hTREM-1) protein (human), sequence (Q9NP99 21-200 limits assumed): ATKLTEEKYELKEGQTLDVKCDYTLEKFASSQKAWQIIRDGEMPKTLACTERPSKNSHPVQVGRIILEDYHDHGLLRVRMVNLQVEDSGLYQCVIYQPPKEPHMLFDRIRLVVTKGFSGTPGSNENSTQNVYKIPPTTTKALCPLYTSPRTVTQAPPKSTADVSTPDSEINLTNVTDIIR
human TREM-1 on cells (human), sequence (Q9NP99 21-234 limits assumed): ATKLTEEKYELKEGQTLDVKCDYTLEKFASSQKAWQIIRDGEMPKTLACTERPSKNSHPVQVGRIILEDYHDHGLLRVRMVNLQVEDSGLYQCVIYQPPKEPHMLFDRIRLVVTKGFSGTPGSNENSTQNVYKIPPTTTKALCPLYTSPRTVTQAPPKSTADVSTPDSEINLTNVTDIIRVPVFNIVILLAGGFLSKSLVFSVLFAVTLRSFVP
recombinant human PGLYRP1 expressed from E. coli and refolded, sequence (O75594 22-196 limits assumed): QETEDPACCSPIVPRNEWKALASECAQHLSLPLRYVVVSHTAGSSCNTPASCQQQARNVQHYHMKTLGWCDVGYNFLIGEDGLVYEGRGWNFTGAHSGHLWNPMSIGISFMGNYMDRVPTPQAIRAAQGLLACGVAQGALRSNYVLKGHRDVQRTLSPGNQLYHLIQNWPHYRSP

% remaining activity at 0.003 µg/ml, BWZ/hTREM-1 reporter [1]: 96%
% remaining activity at 0.03 µg/ml, BWZ/hTREM-1 reporter [1]: 122%
% remaining activity at 0.3 µg/ml, BWZ/hTREM-1 reporter [1]: 113%
Kd [2]: 3 nM
Substance: HM2252 (clone 6B1, Hycult Biotech) (antibody)

BWZ/hTREM-1 reporter signal, RA synovial fluid, mAb at 0.1 ug/ml, assay 1 [1]: 829000
BWZ/hTREM-1 reporter signal, RA synovial fluid, mAb at 0.1 ug/ml, assay 2 [1]: 691000
BWZ/hTREM-1 reporter signal, RA synovial fluid, mAb at 1 ug/ml, assay 1 [1]: 1.19e+06
BWZ/hTREM-1 reporter signal, RA synovial fluid, mAb at 1 ug/ml, assay 2 [1]: 1.02e+06
BWZ/hTREM-1 reporter signal, RA synovial fluid, mAb at 10 ug/ml, assay 1 [1]: 1.08e+06
BWZ/hTREM-1 reporter signal, RA synovial fluid, mAb at 10 ug/ml, assay 2 [1]: 1.05e+06
IL-6, M2 macrophages on platebound mAb 2 µg/ml [1]: 412 pg/mL
IL-6, M2 macrophages on platebound mAb 6 µg/ml [1]: 877 pg/mL
IL-6, M2 macrophages on platebound mAb 20 µg/ml [1]: 1350 pg/mL
Luminescence, BWZ/hTREM-1 reporter cell + activated neutrophils (8.8 x 10E6 without antibody) [1]: 1e+07 luminescence
TNFa, M2 macrophages on platebound mAb 2 µg/ml [1]: 2000 pg/mL
TNFa, M2 macrophages on platebound mAb 6 µg/ml [1]: 6450 pg/mL
TNFa, M2 macrophages on platebound mAb 20 µg/ml [1]: 7750 pg/mL
fold induction of the BWZ/hTREM-1 reporter signal by platebound antibody [1]: 32 fold
induction of NFAT-driven LacZ production, 1-10 µg/ml plate bound antibody against isotype control [1]: 40 fold
normalised reporter signal, PGN-activated neutrophils (normalised signal) [1]: > 1
Kd [2]: 8 nM
Substance: MAB1278 (R&D Systems, cat. no. MAB1278) (antibody)

% remaining activity at 0.003 µg/ml, BWZ/hTREM-1 reporter [1]: 104%
% remaining activity at 0.03 µg/ml, BWZ/hTREM-1 reporter [1]: 101%
% remaining activity at 0.3 µg/ml, BWZ/hTREM-1 reporter [1]: 97%
Substance: SAB1405121 (clone 3F5, Sigma Aldrich) (antibody)

% remaining activity at 0.003 µg/ml, BWZ/hTREM-1 reporter [1]: 98%
% remaining activity at 0.03 µg/ml, BWZ/hTREM-1 reporter [1]: 104%
% remaining activity at 0.3 µg/ml, BWZ/hTREM-1 reporter [1]: 86%
Kd [2]: 20 nM
Substance: WH0054210M4 (clone 2E2, Sigma Aldrich) (antibody)

Kd [3]: 4 nM
% remaining activity at 0.003 µg/ml, BWZ/hTREM-1 reporter [1]: 100%
% remaining activity at 0.03 µg/ml, BWZ/hTREM-1 reporter [1]: 124%
% remaining activity at 0.3 µg/ml, BWZ/hTREM-1 reporter [1]: 108%
Luminescence, BWZ/hTREM-1 reporter cell + activated neutrophils (8.8 x 10E6 without antibody) [1]: 9.9e+06 luminescence
normalised reporter signal, PGN-activated neutrophils (normalised signal) [1]: > 1
% remaining cyno TREM-1 activity at 0.74 ug/ml, reporter cell [4]: 104%
% remaining cyno TREM-1 activity at 20 ug/ml, reporter cell [4]: 87.7%
Kd [2]: 0.9 nM
Substance: clone TREM-26 (Biolegend) (antibody)

% remaining activity at 0.003 µg/ml, BWZ/hTREM-1 reporter [1]: 98%
% remaining activity at 0.03 µg/ml, BWZ/hTREM-1 reporter [1]: 103%
% remaining activity at 0.3 µg/ml, BWZ/hTREM-1 reporter [1]: 90%
Luminescence, BWZ/hTREM-1 reporter cell + activated neutrophils (8.8 x 10E6 without antibody) [1]: 6.1e+06 luminescence
normalised reporter signal, PGN-activated neutrophils (normalised signal) [1]: > 1
Kd [2]: 0.8 nM
Substance: clone TREM-37 (Biolegend, cat. no. 316102) (antibody)

GM-CSF, RA synovial tissue cells, PGN + PGLYRP1 (PGN alone 182) [1]: 616 pg/mL
IL-1beta, RA synovial tissue cells, PGN + PGLYRP1 (PGN alone 2419) [1]: 3770 pg/mL
IL-6, RA synovial tissue cells, PGN + PGLYRP1 (PGN alone 2057) [1]: 4190 pg/mL
IL-8, RA synovial tissue cells, PGN + PGLYRP1 (PGN alone 2575) [1]: 5510 pg/mL
MCP-1, RA synovial tissue cells, PGN + PGLYRP1 (PGN alone 273) [1]: 471 pg/mL
MIP-1beta, RA synovial tissue cells, PGN + PGLYRP1 (PGN alone 2458) [1]: 4400 pg/mL
TNFa, normoxic M2 macrophages, PGN-BS + PGLYRP1, donor 1 (PGN-BS alone 427) [1]: 728 pg/mL
TNFa, normoxic M2 macrophages, PGN-BS + PGLYRP1, donor 2 (PGN-BS alone 381) [1]: 771 pg/mL
TNFalpha, RA synovial tissue cells, PGN + PGLYRP1 (PGN alone 624) [1]: 1440 pg/mL
TNF-α, cynomolgus M2 macrophages, PGN + PGRP-S, donor 1 [4]: 295 pg/mL
TNF-α, cynomolgus M2 macrophages, PGN + PGRP-S, donor 2 [4]: 307 pg/mL
Substance: recombinant human PGLYRP1 expressed from E. coli and refolded (from UniProt O75594 22-196) (ligand)

% remaining activity at 0.003 µg/ml, BWZ/hTREM-1 reporter [1]: 120%
% remaining activity at 0.03 µg/ml, BWZ/hTREM-1 reporter [1]: 134%
% remaining activity at 0.3 µg/ml, BWZ/hTREM-1 reporter [1]: 131%
Kd [2]: 30 nM
Substance: sc-80394 (clone 98Z12, Santa Cruz Biotechnology) (antibody)

TNF-a release, RA synovial tissue cells + IgG4 + 1 x 10^3 Type II cells [1]: 57.9 pg/mL
TNF-a release, RA synovial tissue cells + IgG4 + 1 x 10^4 Type II cells [1]: 95 pg/mL
TNF-a release, RA synovial tissue cells + IgG4 + 1 x 10^5 Type II cells [1]: 121 pg/mL
TNF-a release, RA synovial tissue cells + IgG4 + 3 x 10^3 Type II cells [1]: 54.6 pg/mL
TNF-a release, RA synovial tissue cells + IgG4 + 3 x 10^4 Type II cells [1]: 114 pg/mL
Substance: type II PGLYRP1 on transiently transfected HEK cells (ligand)
